The target in the series is factor X (FX), P00742.
factor X (FX), P00742, sequence (P00742 whole entry, looked up): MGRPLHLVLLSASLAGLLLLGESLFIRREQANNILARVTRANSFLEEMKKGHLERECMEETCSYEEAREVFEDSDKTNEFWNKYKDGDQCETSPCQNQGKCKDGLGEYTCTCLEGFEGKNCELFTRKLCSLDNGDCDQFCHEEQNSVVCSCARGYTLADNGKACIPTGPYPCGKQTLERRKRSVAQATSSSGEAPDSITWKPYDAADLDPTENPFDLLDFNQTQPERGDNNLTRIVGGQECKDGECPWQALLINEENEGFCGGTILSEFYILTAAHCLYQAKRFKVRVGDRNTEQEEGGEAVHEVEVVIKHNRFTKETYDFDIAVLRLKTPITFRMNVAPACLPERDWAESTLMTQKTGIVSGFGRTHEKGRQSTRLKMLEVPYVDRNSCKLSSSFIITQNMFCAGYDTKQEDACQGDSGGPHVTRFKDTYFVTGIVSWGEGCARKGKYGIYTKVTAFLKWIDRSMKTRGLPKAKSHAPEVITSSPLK

B1: FIXa-Y94F/K98T/Y177F (protein)
chain: YNSGKLEEFVQGNLERECMEEKCSFEEAREVFENTERTTEFWKQYVDGDQCESNPCLNGGSCKDDINSYECWCPFGFEGKNCELDVTCNIKNGRCEQFCKNSADNKVVCSCTEGYRLAENQKSCEPAVPFPCGRVSVSQTSKLTRAEAVFPDVDYVNSTEAETILDNITQSTQSFNDFTRVVGGEDAKPGQFPWQVVLNGKVDAFCGGSIVNEKWIVTAAHCVETGVKITVVAGEHNIEETEHTEQKRNVIRIIPHHNFNAAINTYNHDIALLELDEPLVLNSYVTPICIADKEYTNIFLKFGSGYVSGWGRVFHKGRSALVLQYLRVPLVDRATCLRSTKFTIFNNMFCAGFHEGGRDSCQGDSGGPHVTEVEGTSFLTGIISWGEECAMKGKYGIYTKVSRYVNWIKEKTKLT
For the protein B1, the aPTT in FIX-depleted plasma: pdFIXa equivalent activity given for 0.5 µg/mL of FIXa protein (µg/mL pdFIXa activity) was found to be 1.

B2: FIXa-Y94F/K98T/Y177F/I213V/E219G (protein)
chain: YNSGKLEEFVQGNLERECMEEKCSFEEAREVFENTERTTEFWKQYVDGDQCESNPCLNGGSCKDDINSYECWCPFGFEGKNCELDVTCNIKNGRCEQFCKNSADNKVVCSCTEGYRLAENQKSCEPAVPFPCGRVSVSQTSKLTRAEAVFPDVDYVNSTEAETILDNITQSTQSFNDFTRVVGGEDAKPGQFPWQVVLNGKVDAFCGGSIVNEKWIVTAAHCVETGVKITVVAGEHNIEETEHTEQKRNVIRIIPHHNFNAAINTYNHDIALLELDEPLVLNSYVTPICIADKEYTNIFLKFGSGYVSGWGRVFHKGRSALVLQYLRVPLVDRATCLRSTKFTIFNNMFCAGFHEGGRDSCQGDSGGPHVTEVEGTSFLTGIVSWGEGCAMKGKYGIYTKVSRYVNWIKEKTKLT
Regarding B2, the aPTT in FIX-depleted plasma: pdFIXa equivalent activity given for 0.5 µg/mL of FIXa protein (µg/mL pdFIXa activity) turned out to be 14.4.

The values are drawn from US20080214462.
